± gives the standard deviation of the averaged measurements.
test system: ATP; experiment: switch fluorescence ratio, 500 uM ATP over buffer (Cy3 cluster intensity, sum of 5 cycles each) (fold (ratio)); higher = stronger signal-on switching upon ATP binding; sequences stand for … in TCGTCGGCAGCGTCAGATGTGTATAAGAGACAGTTTTTTTTTTTTTTTTTTTTTTTTT…TC; conditions: aptamer strand: ATP DNA aptamer (quencher-CACCTGGGGGAGTATTGCGGAGGAAGG + anchor), 100 nM annealed; ATP concentration: 500 uM
Outline: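 Five buffer/ATP imaging cycles were run on Cy3-labelled switching-strand clusters on a modified Illumina MiSeq flow-cell, with NaOH stripping and re-annealing between cycles. In each cycle, clusters annealed to 100 nM quencher-labelled ATP aptamer were imaged in selection buffer, then after 15 min with 500 uM ATP at 22 °C. Per cluster, the fluorescence ratio is summed target-cycle over summed buffer-cycle Cy3 intensity, averaged per switch-domain sequence. Only clusters within 100-1000 RFU were kept.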
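Further: ATP exposure 15 min at 22 °C before imaging.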

Row | Sequence | switch fluorescence ratio
1 | GCATTGTGTA | 0.9995 ± 0.003
2 | GCATTTAATG | 1 ± 0.05
3 | GCATTTCCCG | 1.06 ± 0.091
4 | GCATTTTCAG | 0.989 ± 0.021
5 | GCATTTTCAT | 0.9766 ± 0.0094
6 | GCCAAATTAG | 0.956 ± 0.011
7 | GCCAAATTGG | 1.02 ± 0.0071
8 | GCCAAGGGAT | 0.9721 ± 0.0082
9 | GCCACAGTAC | 3.04 ± 0.098
10 | GCCAGAGAGG | 1.005 ± 0.0091
11 | GCCAGAGCGA | 1.27 ± 0.0013
12 | GCCAGGGAAA | 0.9958 ± 0.0046
13 | GCCAGGTTCC | 1.09 ± 0.034
14 | GCCATATTGG | 0.9715 ± 0.0077
15 | GCCATCGATC | 1.017 ± 0.0079
16 | GCCATTTGAC | 1.02 ± 0.042
17 | GCCCACCACA | 1.08 ± 0.028
18 | GCCCACTATT | 0.988 ± 0.01
19 | GCCCCCTTGG | 2.02 ± 0.026
20 | GCCCCTGTTT | 1 ± 0.023
21 | GCCCGCAAGG | 1.42 ± 0.015
22 | GCCCGGGGCT | 1.028 ± 0.0057
23 | GCCCGTGGAA | 0.9893 ± 0.0057
24 | GCCCTATCAT | 0.981 ± 0.027
25 | GCCCTCACGT | 1.08 ± 0.081
26 | GCCCTGATGG | 1 ± 0.035

Row | Sequence | switch fluorescence ratio
27 | GCCGAAGTTA | 1.12 ± 0.042
28 | GCCGACTCTG | 1.04 ± 0.048
29 | GCCGAGAAGT | 0.985 ± 0.027
30 | GCCGAGGGGT | 1.037 ± 0.008
31 | GCCGATAGGG | 0.9975 ± 0.0039
32 | GCCGCATGTG | 1.28 ± 0.036
33 | GCCGCCACCT | 1.07 ± 0.019
34 | GCCGCGCGCT | 1 ± 0.082
35 | GCCGCGGGAA | 1 ± 0.051
36 | GCCGCTACCT | 1.11 ± 0.079
37 | GCCGGAAAGT | 1.05 ± 0.07
38 | GCCGGAAGGC | 0.98 ± 0.076
39 | GCCGGCAAAT | 0.995 ± 0.051
40 | GCCGGGATGG | 1 ± 0.031
41 | GCCGGGCGGG | 0.999 ± 0.038
42 | GCCGGGGACA | 1.03 ± 0.053
43 | GCCGGGGACC | 0.98 ± 0.031
44 | GCCGGGGAGC | 1.02 ± 0.045
45 | GCCGGGGATG | 1.007 ± 0.0024
46 | GCCGGGGCGG | 1.006 ± 0.0041
47 | GCCGGGTCAG | 1.02 ± 0.026
48 | GCCGGTCGTC | 1.0461 ± 0.00046
49 | GCCGGTGCTC | 0.996 ± 0.021
50 | GCCGGTTTCT | 1.01 ± 0.031
51 | GCCGTCGTTG | 1 ± 0.019
52 | GCCGTGGGAG | 0.986 ± 0.052

Row | Sequence | switch fluorescence ratio
53 | GCCGTGTTGG | 1 ± 0.032
54 | GCCGTTAACG | 0.969 ± 0.028
55 | GCCTAACGCG | 1.03 ± 0.018
56 | GCCTAATTTT | 0.984 ± 0.021
57 | GCCTAGTATA | 0.9714 ± 0.0049
58 | GCCTAGTTGT | 0.977 ± 0.028
59 | GCCTCGGGGC | 1.02 ± 0.032
60 | GCCTCTGGTC | 0.992 ± 0.028
61 | GCCTGATTTA | 0.95 ± 0.029
62 | GCCTGTTCGG | 0.977 ± 0.024
63 | GCCTGTTTTG | 1 ± 0.046
64 | GCCTTAGTCT | 0.962 ± 0.098
65 | GCCTTGTGCG | 1.01 ± 0.018
66 | GCCTTTAGGG | 1 ± 0.024
67 | GCCTTTGTTT | 0.986 ± 0.02
68 | GCCTTTTGCT | 0.988 ± 0.018
69 | GCCTTTTTGG | 1.02 ± 0.022
70 | GCGAAAAGAT | 0.982 ± 0.018
71 | GCGAAAGGCG | 0.992 ± 0.022
72 | GCGAACCCAA | 1.18 ± 0.048
73 | GCGAACGGTT | 1.03 ± 0.021
74 | GCGAATATGC | 1.1 ± 0.038
75 | GCGAATGTTT | 0.9812 ± 0.0029
76 | GCGAATTAAT | 0.979 ± 0.033
77 | GCGAATTGGG | 1.02 ± 0.024
78 | GCGACCAGGC | 1.14 ± 0.079

Row | Sequence | switch fluorescence ratio
79 | GCGACCCTTT | 1.118 ± 0.0042
80 | GCGACGAGTA | 1.074 ± 0.004
81 | GCGAGAATGT | 0.9879 ± 0.0039
82 | GCGAGACCAG | 1.64 ± 0.051
83 | GCGAGAGAGT | 0.99812 ± 0.0009
84 | GCGAGGAATA | 1.2 ± 0.079
85 | GCGAGGGAAC | 1.03 ± 0.015
86 | GCGAGGGTTC | 0.991 ± 0.029
87 | GCGAGTACGA | 1.02 ± 0.032
88 | GCGAGTCATT | 0.9845 ± 0.007
89 | GCGAGTCTCG | 1.03 ± 0.044
90 | GCGAGTGTAC | 0.983 ± 0.094
91 | GCGAGTGTTT | 1.02 ± 0.048
92 | GCGATAGTTG | 1.02 ± 0.053
93 | GCGATATAGC | 1.03 ± 0.027
94 | GCGATATGTG | 1.013 ± 0.0073
95 | GCGATCAATT | 1.14 ± 0.051
96 | GCGATCAGAG | 1.04 ± 0.037
97 | GCGATGGTGT | 1.02 ± 0.008
98 | GCGATTATGG | 0.977 ± 0.019
99 | GCGATTCCAG | 1.02 ± 0.0065
100 | GCGATTTGGC | 1.01 ± 0.056
101 | GCGCAACTGG | 1.352 ± 0.0074
102 | GCGCAGAACG | 1.07 ± 0.015
103 | GCGCAGCTCG | 0.9814 ± 0.0084
104 | GCGCATATTG | 1.051 ± 0.0021

Row | Sequence | switch fluorescence ratio
105 | GCGCCGGGGG | 1.03 ± 0.018
106 | GCGCGCACAC | 1.05 ± 0.019
107 | GCGCGCTGGG | 0.9646 ± 0.0044
108 | GCGCGGGGGT | 1.08 ± 0.032
109 | GCGCGGTGTT | 0.988 ± 0.026
110 | GCGCGTGAGC | 1.061 ± 0.0011
111 | GCGCTAATGT | 1.08 ± 0.013
112 | GCGCTACAGT | 1.021 ± 0.0069
113 | GCGCTACGTG | 1.01 ± 0.026
114 | GCGCTCAGAT | 1.02 ± 0.028
115 | GCGCTCAGGT | 1.09 ± 0.13
116 | GCGCTGCTGT | 1.04 ± 0.038
117 | GCGCTGGCGG | 1.01 ± 0.024
118 | GCGCTGTTGG | 0.9996 ± 0.0035
119 | GCGCTTGGGA | 1.03 ± 0.056
120 | GCGCTTGTAC | 2.36 ± 0.55
121 | GCGCTTGTTG | 0.998 ± 0.013
122 | GCGGAAGGGG | 0.988 ± 0.015
123 | GCGGACGGGT | 0.969 ± 0.019
124 | GCGGAGACTG | 0.962 ± 0.069
125 | GCGGAGGCGT | 0.984 ± 0.01
126 | GCGGAGGCTG | 0.97393 ± 0.00027
127 | GCGGAGGTTT | 0.973 ± 0.034
128 | GCGGAGTTGT | 1.02 ± 0.035
129 | GCGGCAAGGG | 1.03 ± 0.035
130 | GCGGCACGGC | 1.01 ± 0.03

Row | Sequence | switch fluorescence ratio
131 | GCGGCAGTCT | 1.03 ± 0.012
132 | GCGGCATTGG | 1.04 ± 0.053
133 | GCGGCCGGGG | 0.999 ± 0.024
134 | GCGGCGGATC | 0.987 ± 0.038
135 | GCGGCTTCTC | 1.018 ± 0.0072
136 | GCGGGACGTG | 0.9857 ± 0.0098
137 | GCGGGACTGT | 1.04 ± 0.046
138 | GCGGGAGGCT | 0.977 ± 0.028
139 | GCGGGCCTGT | 0.9967 ± 0.0099
140 | GCGGGCGGGG | 1.02 ± 0.05
141 | GCGGGCTTGG | 0.974 ± 0.015
142 | GCGGGGATGC | 1.03 ± 0.075
143 | GCGGGGCAAC | 1.01 ± 0.064
144 | GCGGGGCACA | 0.987 ± 0.022
145 | GCGGGGCGAA | 1.01 ± 0.012
146 | GCGGGGCGTA | 0.995 ± 0.016
147 | GCGGGGGCTT | 0.98 ± 0.033
148 | GCGGGGGTTC | 1.04 ± 0.05
149 | GCGGGGTCAG | 0.989 ± 0.025
150 | GCGGTAATCG | 1.03 ± 0.032
151 | GCGGTACACG | 1.01 ± 0.027
152 | GCGGTAGTCG | 1.02 ± 0.052
153 | GCGGTATAC | 2.72 ± 0.14

— the supplement of paper PMC10126150
